According to PMC8041205 (2021):

Target: BSA
Assay: ITC

B1: UBE2D1 (R&D) (enzyme)
chain: not shown
Question: How did the Kd turn out when B1 was run?
Answer: > 10 mM
